Experimental findings from US20210032299A1 (Eli Lilly, published 2021) are described below.

Changes are numbered by the printed parent chain. Starred links: 1 amine or outer side, 2 acyl side, 3 side chain; linkers in the order of their positions; H or OH if unused. Non-standard residues stand in square brackets, D forms with d. Groups on a side chain read outwards from the residue. No end group written: not given here. *: point of attachment. C20 diacid = O=C(O)CCCCCCCCCCCCCCCCCCC(=O)*; C18 diacid = O=C(O)CCCCCCCCCCCCCCCCC(=O)*; αMePhe(2-F) = C[C@](N)(Cc1ccccc1F)C(=O)O; γGlu = O=C(O)[C@H](CCC(=O)[*:2])N[*:1]; αMeF = C[C@](N)(Cc1ccccc1)C(=O)O; 4Pal = N[C@@H](Cc1ccncc1)C(=O)O; AEEA = NCCOCCOCC(=O)O; Aib = CC(C)(N)C(=O)O

The chains are these.
B1: Example 27 (peptide)
peptide: YXEGTFISDYSILLDKKAQXEFVQWLLAGGPSSGAPPPS
modifications: D-Ala2; K17((2-[2-(2-Amino-ethoxy)-ethoxy]-acetyl)2-(γ-Glu)-CO-(CH2)16-CO2H); Aib20; C-terminal amide
B2: Example 28 (peptide)
peptide: B1 peptide with Q24N, A28E
modifications: D-Ala2; K17((2-[2-(2-Amino-ethoxy)-ethoxy]-acetyl)2-(γ-Glu)-CO-(CH2)16-CO2H); Aib20; C-terminal amide
B3: Example 29 (peptide)
peptide: B1 peptide with Q24E
modifications: D-Ala2; K17((2-[2-(2-Amino-ethoxy)-ethoxy]-acetyl)2-(γ-Glu)-CO-(CH2)16-CO2H); Aib20; C-terminal amide
B4: Example 26 (peptide)
peptide: Y[Aib]EGT[αMePhe(2-F)]ISDYSIALDKK([AEEA-AEEA-γGlu-C20 diacid])HQ[Aib]EFVNWLLAGGPSSGAPPPS-NH2
modifications: N-terminus assumed
SMILES: CC[C@H](C)[C@H](NC(=O)[C@H](CO)NC(=O)[C@H](Cc1ccc(O)cc1)NC(=O)[C@H](CC(=O)O)NC(=O)[C@H](CO)NC(=O)[C@@H](NC(=O)[C@](C)(Cc1ccccc1F)NC(=O)[C@@H](NC(=O)CNC(=O)[C@H](CCC(=O)O)NC(=O)C(C)(C)NC(=O)[C@@H](N)Cc1ccc(O)cc1)[C@@H](C)O)[C@@H](C)CC)C(=O)N[C@@H](C)C(=O)N[C@@H](CC(C)C)C(=O)N[C@@H](CC(=O)O)C(=O)N[C@@H](CCCCN)C(=O)N[C@@H](CCCCNC(=O)COCCOCCNC(=O)COCCOCCNC(=O)CC[C@H](NC(=O)CCCCCCCCCCCCCCCCCCC(=O)O)C(=O)O)C(=O)N[C@@H](Cc1c[nH]cn1)C(=O)N[C@@H](CCC(N)=O)C(=O)NC(C)(C)C(=O)N[C@@H](CCC(=O)O)C(=O)N[C@@H](Cc1ccccc1)C(=O)N[C@H](C(=O)N[C@@H](CC(N)=O)C(=O)N[C@@H](Cc1c[nH]c2ccccc12)C(=O)N[C@@H](CC(C)C)C(=O)N[C@@H](CC(C)C)C(=O)N[C@@H](C)C(=O)NCC(=O)NCC(=O)N1CCC[C@H]1C(=O)N[C@@H](CO)C(=O)N[C@@H](CO)C(=O)NCC(=O)N[C@@H](C)C(=O)N1CCC[C@H]1C(=O)N1CCC[C@H]1C(=O)N1CCC[C@H]1C(=O)N[C@@H](CO)C(N)=O)C(C)C
B5: Example 24 (peptide)
peptide: Y[Aib]EGTFISDYSI[Aib]LDKK([AEEA-AEEA-γGlu-C18 diacid])HQ[Aib]DFVE[4Pal]LLAGGPSSGAPPPS-NH2
modifications: N-terminus assumed
SMILES: CC[C@H](C)[C@H](NC(=O)[C@H](Cc1ccccc1)NC(=O)[C@@H](NC(=O)CNC(=O)[C@H](CCC(=O)O)NC(=O)C(C)(C)NC(=O)[C@@H](N)Cc1ccc(O)cc1)[C@@H](C)O)C(=O)N[C@@H](CO)C(=O)N[C@@H](CC(=O)O)C(=O)N[C@@H](Cc1ccc(O)cc1)C(=O)N[C@@H](CO)C(=O)N[C@H](C(=O)NC(C)(C)C(=O)N[C@@H](CC(C)C)C(=O)N[C@@H](CC(=O)O)C(=O)N[C@@H](CCCCN)C(=O)N[C@@H](CCCCNC(=O)COCCOCCNC(=O)COCCOCCNC(=O)CC[C@H](NC(=O)CCCCCCCCCCCCCCCCC(=O)O)C(=O)O)C(=O)N[C@@H](Cc1c[nH]cn1)C(=O)N[C@@H](CCC(N)=O)C(=O)NC(C)(C)C(=O)N[C@@H](CC(=O)O)C(=O)N[C@@H](Cc1ccccc1)C(=O)N[C@H](C(=O)N[C@@H](CCC(=O)O)C(=O)N[C@@H](Cc1ccncc1)C(=O)N[C@@H](CC(C)C)C(=O)N[C@@H](CC(C)C)C(=O)N[C@@H](C)C(=O)NCC(=O)NCC(=O)N1CCC[C@H]1C(=O)N[C@@H](CO)C(=O)N[C@@H](CO)C(=O)NCC(=O)N[C@@H](C)C(=O)N1CCC[C@H]1C(=O)N1CCC[C@H]1C(=O)N1CCC[C@H]1C(=O)N[C@@H](CO)C(N)=O)C(C)C)[C@@H](C)CC
B6: Example 30 (peptide)
peptide: Ac-[dY]AEGT[αMePhe(2-F)]ISDYSIALDKK([AEEA-AEEA-γGlu-C18 diacid])HQ[Aib]EFVNYLLAGGPSSGAPPPS-NH2
SMILES: CC[C@H](C)[C@H](NC(=O)[C@H](CO)NC(=O)[C@H](Cc1ccc(O)cc1)NC(=O)[C@H](CC(=O)O)NC(=O)[C@H](CO)NC(=O)[C@@H](NC(=O)[C@](C)(Cc1ccccc1F)NC(=O)[C@@H](NC(=O)CNC(=O)[C@H](CCC(=O)O)NC(=O)[C@H](C)NC(=O)[C@@H](Cc1ccc(O)cc1)NC(C)=O)[C@@H](C)O)[C@@H](C)CC)C(=O)N[C@@H](C)C(=O)N[C@@H](CC(C)C)C(=O)N[C@@H](CC(=O)O)C(=O)N[C@@H](CCCCN)C(=O)N[C@@H](CCCCNC(=O)COCCOCCNC(=O)COCCOCCNC(=O)CC[C@H](NC(=O)CCCCCCCCCCCCCCCCC(=O)O)C(=O)O)C(=O)N[C@@H](Cc1c[nH]cn1)C(=O)N[C@@H](CCC(N)=O)C(=O)NC(C)(C)C(=O)N[C@@H](CCC(=O)O)C(=O)N[C@@H](Cc1ccccc1)C(=O)N[C@H](C(=O)N[C@@H](CC(N)=O)C(=O)N[C@@H](Cc1ccc(O)cc1)C(=O)N[C@@H](CC(C)C)C(=O)N[C@@H](CC(C)C)C(=O)N[C@@H](C)C(=O)NCC(=O)NCC(=O)N1CCC[C@H]1C(=O)N[C@@H](CO)C(=O)N[C@@H](CO)C(=O)NCC(=O)N[C@@H](C)C(=O)N1CCC[C@H]1C(=O)N1CCC[C@H]1C(=O)N1CCC[C@H]1C(=O)N[C@@H](CO)C(N)=O)C(C)C
B7: Example 23 (peptide)
peptide: Y[Aib]EGT[αMeF]ISDYSIALDKK([AEEA-AEEA-γGlu-C18 diacid])HQ[Aib]DFVE[4Pal]LLAGGPSSGAPPPS-NH2
modifications: N-terminus assumed
SMILES: CC[C@H](C)[C@H](NC(=O)[C@H](CO)NC(=O)[C@H](Cc1ccc(O)cc1)NC(=O)[C@H](CC(=O)O)NC(=O)[C@H](CO)NC(=O)[C@@H](NC(=O)[C@](C)(Cc1ccccc1)NC(=O)[C@@H](NC(=O)CNC(=O)[C@H](CCC(=O)O)NC(=O)C(C)(C)NC(=O)[C@@H](N)Cc1ccc(O)cc1)[C@@H](C)O)[C@@H](C)CC)C(=O)N[C@@H](C)C(=O)N[C@@H](CC(C)C)C(=O)N[C@@H](CC(=O)O)C(=O)N[C@@H](CCCCN)C(=O)N[C@@H](CCCCNC(=O)COCCOCCNC(=O)COCCOCCNC(=O)CC[C@H](NC(=O)CCCCCCCCCCCCCCCCC(=O)O)C(=O)O)C(=O)N[C@@H](Cc1c[nH]cn1)C(=O)N[C@@H](CCC(N)=O)C(=O)NC(C)(C)C(=O)N[C@@H](CC(=O)O)C(=O)N[C@@H](Cc1ccccc1)C(=O)N[C@H](C(=O)N[C@@H](CCC(=O)O)C(=O)N[C@@H](Cc1ccncc1)C(=O)N[C@@H](CC(C)C)C(=O)N[C@@H](CC(C)C)C(=O)N[C@@H](C)C(=O)NCC(=O)NCC(=O)N1CCC[C@H]1C(=O)N[C@@H](CO)C(=O)N[C@@H](CO)C(=O)NCC(=O)N[C@@H](C)C(=O)N1CCC[C@H]1C(=O)N1CCC[C@H]1C(=O)N1CCC[C@H]1C(=O)N[C@@H](CO)C(N)=O)C(C)C
B8: Example 25 (peptide)
peptide: Y[Aib]EGT[αMeF]ISDYSIALDKK([AEEA-AEEA-γGlu-C20 diacid])HQ[Aib]EFVNWLLAGGPSSGAPPPS-NH2
modifications: N-terminus assumed
SMILES: CC[C@H](C)[C@H](NC(=O)[C@H](CO)NC(=O)[C@H](Cc1ccc(O)cc1)NC(=O)[C@H](CC(=O)O)NC(=O)[C@H](CO)NC(=O)[C@@H](NC(=O)[C@](C)(Cc1ccccc1)NC(=O)[C@@H](NC(=O)CNC(=O)[C@H](CCC(=O)O)NC(=O)C(C)(C)NC(=O)[C@@H](N)Cc1ccc(O)cc1)[C@@H](C)O)[C@@H](C)CC)C(=O)N[C@@H](C)C(=O)N[C@@H](CC(C)C)C(=O)N[C@@H](CC(=O)O)C(=O)N[C@@H](CCCCN)C(=O)N[C@@H](CCCCNC(=O)COCCOCCNC(=O)COCCOCCNC(=O)CC[C@H](NC(=O)CCCCCCCCCCCCCCCCCCC(=O)O)C(=O)O)C(=O)N[C@@H](Cc1c[nH]cn1)C(=O)N[C@@H](CCC(N)=O)C(=O)NC(C)(C)C(=O)N[C@@H](CCC(=O)O)C(=O)N[C@@H](Cc1ccccc1)C(=O)N[C@H](C(=O)N[C@@H](CC(N)=O)C(=O)N[C@@H](Cc1c[nH]c2ccccc12)C(=O)N[C@@H](CC(C)C)C(=O)N[C@@H](CC(C)C)C(=O)N[C@@H](C)C(=O)NCC(=O)NCC(=O)N1CCC[C@H]1C(=O)N[C@@H](CO)C(=O)N[C@@H](CO)C(=O)NCC(=O)N[C@@H](C)C(=O)N1CCC[C@H]1C(=O)N1CCC[C@H]1C(=O)N1CCC[C@H]1C(=O)N[C@@H](CO)C(N)=O)C(C)C

The target in one test is human glucagon receptor (human, UniProt P47871 26-477). The test can be described thus: cell-based or functional assay.
Sequence of human glucagon receptor (P47871 26-477): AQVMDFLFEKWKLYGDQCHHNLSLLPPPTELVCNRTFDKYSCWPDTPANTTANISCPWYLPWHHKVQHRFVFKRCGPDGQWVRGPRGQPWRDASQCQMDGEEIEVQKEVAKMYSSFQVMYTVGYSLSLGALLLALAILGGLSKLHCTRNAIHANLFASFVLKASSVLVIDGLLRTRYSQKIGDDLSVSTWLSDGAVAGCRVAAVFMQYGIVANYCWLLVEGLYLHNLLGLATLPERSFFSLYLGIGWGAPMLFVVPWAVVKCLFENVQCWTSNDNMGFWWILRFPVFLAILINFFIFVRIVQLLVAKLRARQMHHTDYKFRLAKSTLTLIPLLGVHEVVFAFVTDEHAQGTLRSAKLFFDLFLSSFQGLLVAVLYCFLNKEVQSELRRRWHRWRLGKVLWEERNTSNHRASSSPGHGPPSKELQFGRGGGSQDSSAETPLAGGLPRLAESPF
Take B1: the “hGcgR cAMP Rel EC50” value is more than 5 µM.

Take B2: the “hGcgR cAMP Rel EC50” value was more than 5 µM.

Consider B3, for which the “hGcgR cAMP Rel EC50” value was more than 5 µM.

With B4, the “hGcgR cAMP Rel EC50” value was more than 5 µM.

On to B5, for which the “hGcgR cAMP Rel EC50” value was more than 5 µM.

Regarding B6, the “hGcgR cAMP Rel EC50” value is more than 5 µM.

Consider B7, for which the “hGcgR cAMP Rel EC50” value is more than 5 µM.

In the case of B8, the “hGcgR cAMP Rel EC50” value is more than 5 µM.

Another test deals with T1, human glucose-dependent insulinotropic peptide receptor (human, UniProt P48546 22-466).
T1 sequence (looked up): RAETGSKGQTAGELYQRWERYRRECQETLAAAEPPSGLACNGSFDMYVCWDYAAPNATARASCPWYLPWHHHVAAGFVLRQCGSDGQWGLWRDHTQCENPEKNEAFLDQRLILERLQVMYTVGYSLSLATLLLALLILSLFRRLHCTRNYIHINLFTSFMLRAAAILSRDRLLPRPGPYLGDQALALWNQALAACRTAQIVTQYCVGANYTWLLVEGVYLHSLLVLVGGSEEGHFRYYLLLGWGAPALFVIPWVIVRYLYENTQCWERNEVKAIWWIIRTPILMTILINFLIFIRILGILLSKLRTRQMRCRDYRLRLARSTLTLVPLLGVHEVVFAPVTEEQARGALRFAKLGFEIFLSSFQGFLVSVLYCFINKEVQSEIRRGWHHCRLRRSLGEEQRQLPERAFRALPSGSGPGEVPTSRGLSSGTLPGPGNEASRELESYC
The test can be described thus: cell-based or functional assay.
As to B1, the “hGIPR cAMP Rel EC50” value came to 0.0132 nM.

In the case of B2, the “hGIPR cAMP Rel EC50” value came out at 0.0118 nM.

Turning to B3, the “hGIPR cAMP Rel EC50” value was determined as 0.00679 nM.

For B4, the “hGIPR cAMP Rel EC50” value amounted to 0.00991 nM.

With B5, the “hGIPR cAMP Rel EC50” value stood at 0.0699 nM.

Consider B6, for which the “hGIPR cAMP Rel EC50” value stood at 0.00572 nM.

B7: the “hGIPR cAMP Rel EC50” value is 0.0192 nM.

With B8, the “hGIPR cAMP Rel EC50” value is 0.0155 nM.

For the next test, the target named is human GLP-1 receptor (human, UniProt P43220 24-463). The test can be described thus: cell-based or functional assay.
As for B1, the “hGLP1R cAMP Rel EC50” value is more than 5000 nM.

For the molecule B2, the “hGLP1R cAMP Rel EC50” value is more than 5000 nM.

As to B3, the “hGLP1R cAMP Rel EC50” value is more than 5000 nM.

With B4, the “hGLP1R cAMP Rel EC50” value came to 5.69 nM.

For the molecule B5, the “hGLP1R cAMP Rel EC50” value is more than 5000 nM.

Regarding B6, the “hGLP1R cAMP Rel EC50” value was more than 5000 nM.

Take B7: the “hGLP1R cAMP Rel EC50” value came to 206 nM.

For B8, the “hGLP1R cAMP Rel EC50” value was 8.39 nM.
